Measured values taken from publication PMC9947222.

How the values were obtained:
[1] = system: anti-NP mAb clone B1-8 (Abcam ab206523) (mouse); assay: FIDA; details: binding via NIP hapten; in solution; LNA/2'-OMe as N0; one 5' amino-C6 NIP hapten (carrier strand not stated); BLI: PBS, 0.02% Tween-20, 0.1% BSA, pH 7.4, HJ 0.2-20 nM, temperature not stated; all positive binding is through the NP/NIP hapten, not the nucleic acid
[2] = molecular target: mouse IgG2a (mIgG2a) antibody (BALB/c IgG2a,κ Purified Mouse Anti-Mouse I-A[b], Clone AF6-120.1), conjugated to the S1-handle DNA with P3 docking site (mouse); assay: DNA-PAINT super-resolution microscopy on DNA origami (labeling efficiency); mIgG2a-DNA conjugate (60 nM) hybridised to DNA origami held by neutravidin on a biotin-PEG surface; κLC-Nb-7xR3 added in 0.5x buffer C + 1.5% BSA, >45 min at RT, excess washed off; two rounds of Exchange-PAINT (R3, P3); R3 clusters <19 nm from P3 clusters counted

Fab labeling density [2] [%] | nanobodies bound per BCR (average) [2] | Substance | Kd [1] [nM]
– | – | CCGTCCTGAGCC / CACAGTGGACGG / GGCTCACCGATC / GATCGGACTGTG [HJ-1xNIP] | 20
80 | 1.5 | anti-mouse kappa light chain nanobody (κLC-Nb) with Ser87 replaced by Cys87, conjugated to the DNA-PAINT docking strand 7xR3 (VHH) | –
